Results taken from doi:10.1101/2023.06.06.543969.

Legend:
Assay in all cases: BLI
[1] = target: His-tagged HIV Env MPER peptide
[2] = target: biotinylated SARS-CoV-2 fusion peptide
[3] = target: SARS-CoV-2 spike
[4] = target: HCV E2 envelope glycoprotein
[5] = target: HC84.26.5D Fab VH G50R (human)

Substance: 4E10 Fab (WT) VH:G50R
- ratio to parent [1]: > 100

Substance: COV44–62 Fab (WT) VH:R50W
- ratio to parent [2]: > 100

Substance: COVOX-316 VH:W50R
- ratio to parent [3]: > 100

Substance: HC33.8 VH:S52Y
- ratio to parent [4]: > 100

Substance: HCV1 VH:W52S
- ratio to parent [4]: > 100

Substance: HCV (isolate H77) E2 domain (domain or fragment)
- fold change in KD against the wild type [5]: 6 fold

Substance: P008_60 VH:S52R
- ratio to parent [3]: > 100
